Laboratory results published in article PMC9169922.
Where two headings read alike, the source gives them in different places.

B1: G-C template:primer (matched) (dsDNA)
DNA 1: AATACATAAGCGCTCCAGGCAAT
DNA 2: GCCTGGAGCGC
modifications: primer 3'-terminal dideoxycytidine
B2: C-C mismatch template:primer (dsDNA)
DNA 1: AATACATAACCGCTCCAGGCAAT
DNA 2: GCCTGGAGCGC
modifications: primer 3'-terminal dideoxycytidine
B3: T-C mismatch template:primer (dsDNA)
DNA 1: AATACATAATCGCTCCAGGCAAT
DNA 2: GCCTGGAGCGC
modifications: primer 3'-terminal dideoxycytidine
B4: A-C mismatch template:primer (dsDNA)
DNA 1: AATACATAAACGCTCCAGGCAAT
DNA 2: GCCTGGAGCGC
modifications: primer 3'-terminal dideoxycytidine
B5: T-C mismatch DNA template:RNA primer (crystal) (DNA:RNA)
DNA: ATAGTCGCTCCAGGC
RNA: GCCUGGAGCGC
modifications: RNA primer with 3'-terminal dideoxycytidine

Key:
[1] = molecular target: T1, DNA polymerase alpha catalytic domain (PolαCD) (human, UniProt P09884 338-1250); experiment: BLI
[2] = molecular target: T1, DNA polymerase alpha catalytic domain …; experiment: BLI; remark: listed apart in the source
[3] = molecular target: T1, DNA polymerase alpha catalytic domain …; experiment: BLI; remark: listed apart in the source
[4] = molecular target: T1, DNA polymerase alpha catalytic domain …; experiment: BLI; remark: listed apart in the source
[5] = molecular target: T1, DNA polymerase alpha catalytic domain …; experiment: BLI; remark: listed apart in the source
[6] = molecular target: T1, DNA polymerase alpha catalytic domain …; experiment: crystal structure

T1 sequence (P09884 338-1250): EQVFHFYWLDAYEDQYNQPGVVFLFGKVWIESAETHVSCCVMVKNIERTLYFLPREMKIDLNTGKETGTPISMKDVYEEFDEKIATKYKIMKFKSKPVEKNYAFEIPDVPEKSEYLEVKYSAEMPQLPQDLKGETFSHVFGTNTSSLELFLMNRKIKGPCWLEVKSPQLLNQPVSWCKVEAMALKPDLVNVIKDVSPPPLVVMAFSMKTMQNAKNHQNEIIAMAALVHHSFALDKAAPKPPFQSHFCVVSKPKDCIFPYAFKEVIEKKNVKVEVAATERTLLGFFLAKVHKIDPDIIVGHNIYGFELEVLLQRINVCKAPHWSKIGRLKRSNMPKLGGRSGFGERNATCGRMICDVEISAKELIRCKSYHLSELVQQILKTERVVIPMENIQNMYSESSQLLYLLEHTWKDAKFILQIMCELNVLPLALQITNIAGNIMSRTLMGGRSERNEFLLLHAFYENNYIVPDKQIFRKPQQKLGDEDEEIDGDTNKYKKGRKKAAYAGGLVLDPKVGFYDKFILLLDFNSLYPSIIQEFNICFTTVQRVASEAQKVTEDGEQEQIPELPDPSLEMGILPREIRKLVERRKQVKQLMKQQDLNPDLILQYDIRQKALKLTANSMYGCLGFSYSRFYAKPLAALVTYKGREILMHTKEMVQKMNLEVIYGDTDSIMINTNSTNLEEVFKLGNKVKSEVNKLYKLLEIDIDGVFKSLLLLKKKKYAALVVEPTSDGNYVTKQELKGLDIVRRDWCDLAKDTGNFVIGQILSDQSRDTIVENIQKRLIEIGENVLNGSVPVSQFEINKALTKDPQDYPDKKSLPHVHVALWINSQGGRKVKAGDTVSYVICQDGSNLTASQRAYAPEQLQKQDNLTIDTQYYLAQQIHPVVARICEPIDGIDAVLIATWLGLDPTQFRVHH

Binder	Kd [1]	Kd [2]	Kd [3]	Kd [4]	Kd [5]	binding result [6]
B1	40.8 ± 1.6 nM	1400 ± 130 nM	1200 nM	30.2 ± 1.3 nM	168 ± 17 nM	–
B2	11.7 ± 0.42 nM	646 ± 11 nM	–	–	–	–
B3	14.2 ± 0.13 nM	462 ± 43 nM	–	–	–	–
B4	12.6 ± 1.3 nM	987 ± 18 nM	–	–	–	–
B5	–	–	–	–	–	binds
